Assays:
[1] = molecular target: T1, E-selectin on ES-Endo cells (Tet-on HMVEC) (UniProt P16581 P16581:22-610); assay: cell_activity; inhibition of HL-60 adhesion to ES-Endo, 4 C; 80% at 100 nM
T1 sequence: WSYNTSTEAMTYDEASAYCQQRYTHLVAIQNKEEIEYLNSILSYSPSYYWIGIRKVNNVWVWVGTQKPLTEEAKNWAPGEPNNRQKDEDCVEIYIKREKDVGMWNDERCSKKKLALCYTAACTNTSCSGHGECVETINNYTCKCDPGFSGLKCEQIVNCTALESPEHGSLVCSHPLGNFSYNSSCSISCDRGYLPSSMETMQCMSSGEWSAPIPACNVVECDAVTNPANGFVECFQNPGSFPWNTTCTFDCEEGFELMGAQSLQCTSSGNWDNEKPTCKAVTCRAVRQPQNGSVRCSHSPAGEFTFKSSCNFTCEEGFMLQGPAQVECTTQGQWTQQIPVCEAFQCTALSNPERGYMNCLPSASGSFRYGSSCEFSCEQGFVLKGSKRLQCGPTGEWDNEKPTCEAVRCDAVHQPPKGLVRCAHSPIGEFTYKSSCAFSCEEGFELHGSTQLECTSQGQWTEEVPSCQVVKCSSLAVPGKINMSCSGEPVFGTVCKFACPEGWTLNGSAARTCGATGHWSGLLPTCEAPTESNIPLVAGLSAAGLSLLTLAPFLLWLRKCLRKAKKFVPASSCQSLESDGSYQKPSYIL
Protocol: On the basis of specific binding of ESTA-1 to E-selectin, a study was done to determine the effect of ESTA-1 on adhesion of sLe^X positive cells to endothelial cells. Confluent E-selectin expressing ES-Endo cells were incubated with doxycycline for 5 hours followed by ESTA-1 (50 nM, 100 nM) for 20 minutes. HL-60 cells a human promyelomonocytic cell line, or cells from two breast cancer cell lines (MDA-MB-231 and MDA-MB-468: 10^5 cells) suspended in RPMI containing 1% FBS were added to ES-Endo and incubated at 4° C. for 30 minutes with mild agitation. The unbound cells were washed off with RPMI containing 1% FBS. The number of cells that adhered to the ES-Endo was counted on at least 3 random areas using a light microscope (final magnification 100×) and expressed as the mean of triplicate experiments. […] HL-60 cell adhesion to ES-Endo increased by 5-fold when E-selectin expression was induced by doxycycline (FIG. 12A). Pretreatment of the E-selectin expressing ES-Endo with ESTA-1 inhibited HL-60 adhesion by 80% at 100 nM ESTA-1 (FIG. 12A). […] Lastly, we tested cytotoxicity associated with ESTA-1 treatment in ES-Endo cells. ES-Endo cells were first incubated with doxycycline for 5 hours and then with increasing concentration of ESTA-1 (up to 200 nM) for 48 hours. MTT assay was performed to test cell viability.

[2] = molecular target: T2, L-selectin (Homo sapiens, UniProt P14151 P14151:39-332); assay: EMSA; binding not detectable under the same conditions
T2 sequence: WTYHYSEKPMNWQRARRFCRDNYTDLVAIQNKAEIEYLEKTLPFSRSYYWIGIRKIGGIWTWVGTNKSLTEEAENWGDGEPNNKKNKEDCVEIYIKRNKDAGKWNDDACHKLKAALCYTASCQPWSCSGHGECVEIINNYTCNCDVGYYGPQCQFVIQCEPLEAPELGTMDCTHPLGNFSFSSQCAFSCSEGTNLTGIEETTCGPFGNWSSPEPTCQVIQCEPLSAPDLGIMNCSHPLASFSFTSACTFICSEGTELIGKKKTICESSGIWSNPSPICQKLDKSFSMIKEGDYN
Text: Protein-bound TA and unbound TA were quantified using ImageJ software. The binding curves were generated assuming a single binding site curve fits using the Graph Pad Prism software.
To evaluate the binding affinity of ESTA-1 to all selectins, an electrophoretic mobility shift assay (EMSA) was utilized. To determine the binding constant, fixed amounts of ESTA-1 was mixed with increasing amounts of recombinant protein (E-, P-, and L-selectin). ESTA-1 (4.6 pmoles) and recombinant human selectin protein (up to 19 pmoles) were incubated and subjected to electrophoresis at 4° C. The gels were stained with SYBR Gold nucleic acid stain and densitometric analysis of the unbound ESTA-1 was plotted using E-selectin or P-selectin recombinant protein. […] As expected, the amounts of ESTA-1/E-selectin complexes reached saturation at a molar ratio of 1:1, when both of the binding molecules are at a concentration of 500 nM. Based on the densitometric analysis, the binding constant calculated for the ESTA-1 binding to E-selectin was 47 nM (FIG. 11A). […] ESTA-1 binding to L-selectin was not detectable under the same conditions. […] To further validate the binding affinity of ESTA-1 under biological conditions, different concentrations of ESTA-1 (50-200 nM) were incubated with ES-Endo cells induced with doxycycline. […] ESTA-1 binding was analyzed by fluorescent imaging.

[3] = molecular target: P-selectin (Homo sapiens, UniProt P16109 P16109:42-771); assay: EMSA; estimated; PBS with Ca2+ and Mg2+, 5 mM MgCl2, 1% NP40
Protocol: Equal amounts of ESTA-1 (4.6 pmoles) were incubated with increasing concentrations of the recombinant selectin proteins (0-19 pmoles) in a total volume of 10.5 μl of PBS supplemented with Ca2+ and Mg2+, 5 mM MgCl2, and 1% NP40 at room temperature for 45 minutes. The reaction mixtures were loaded onto 6% polyacrylamide tris borate gels and run at 100 V for 90 minutes at 4° C. The gel was stained with SYBR Gold nucleic acid staining dye and visualized using the Fluor Chem 8800 chemimager (Alpha Innotech). Protein-bound TA and unbound TA were quantified using ImageJ software. The binding curves were generated assuming a single binding site curve fits using the Graph Pad Prism software.
To evaluate the binding affinity of ESTA-1 to all selectins, an electrophoretic mobility shift assay (EMSA) was utilized. To determine the binding constant, fixed amounts of ESTA-1 was mixed with increasing amounts of recombinant protein (E-, P-, and L-selectin). ESTA-1 (4.6 pmoles) and recombinant human selectin protein (up to 19 pmoles) were incubated and subjected to electrophoresis at 4° C. The gels were stained with SYBR Gold nucleic acid stain and densitometric analysis of the unbound ESTA-1 was plotted using E-selectin or P-selectin recombinant protein. […] Based on the densitometric analysis, the binding constant calculated for the ESTA-1 binding to E-selectin was 47 nM (FIG. 11A). […]

Chain of P-selectin (P16109 42-771, one chain of several): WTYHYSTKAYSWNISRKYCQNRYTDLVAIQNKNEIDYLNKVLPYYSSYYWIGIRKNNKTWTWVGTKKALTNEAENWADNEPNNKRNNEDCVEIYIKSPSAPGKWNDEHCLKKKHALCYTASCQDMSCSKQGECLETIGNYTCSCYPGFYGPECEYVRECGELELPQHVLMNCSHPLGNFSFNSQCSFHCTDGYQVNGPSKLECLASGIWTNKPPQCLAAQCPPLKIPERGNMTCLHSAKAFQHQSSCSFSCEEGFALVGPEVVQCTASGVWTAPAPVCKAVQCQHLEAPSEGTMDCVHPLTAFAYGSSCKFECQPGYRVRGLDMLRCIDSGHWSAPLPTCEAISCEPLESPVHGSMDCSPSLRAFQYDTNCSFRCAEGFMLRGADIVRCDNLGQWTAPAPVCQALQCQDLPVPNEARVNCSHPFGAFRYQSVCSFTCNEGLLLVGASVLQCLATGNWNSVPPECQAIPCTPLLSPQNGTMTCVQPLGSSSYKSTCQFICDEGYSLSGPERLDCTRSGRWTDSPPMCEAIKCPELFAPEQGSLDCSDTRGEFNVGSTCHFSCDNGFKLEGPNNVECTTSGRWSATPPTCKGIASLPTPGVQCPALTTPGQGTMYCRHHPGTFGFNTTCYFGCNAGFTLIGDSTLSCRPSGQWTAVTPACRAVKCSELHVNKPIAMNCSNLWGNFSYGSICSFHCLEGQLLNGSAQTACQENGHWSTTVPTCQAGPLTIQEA

B1: ESTA-1 (TA-1) (ssDNA)
DNA: CGCTCGGATCGATAAGCTTCGATCCCACTCTCCCGTTCACTTCTCCTCACGTCACGGATCCTCTAGAGCACTG
modifications: 5'-monothiophosphate (Rp) on all dA except in primer-binding region
For B1, the IC50 [1] was ~0.063 µM, the binding result [2] was “no binding” and the Kd [3] was ~13 µM.

Source: patent US20120039810, “APTAMER-CONTAINING COMPOSITIONS AND METHODS FOR TARGETING E-SELECTIN” (published 2012)
